Measured values reported in patent publication EP2747783B1 (Ablynx N.V., dated 2017).
One block for each binder: values may come before it.

How the values were obtained:
[1] = molecular target: T1, human c-Met, cell membrane expressed (A549, BxPC-3, myeloma cells) (human, UniProt P08581 25-1390); assay: cell-based or functional assay
[2] = molecular target: T2, recombinant human c-Met/Fc chimera (R&D systems) (human); assay: SPR (ProteOn); c-Met/Fc captured by anti-human IgG(Fc)
T2 construct: Bought protein; also called hc-Met/Fc; hu c-Met/Fc

[3] = molecular target: T1, human c-Met, cell membrane expressed …; assay: cell-based or functional assay; remark: listed apart in the source
[4] = molecular target: T2, recombinant human c-Met/Fc chimera (R&D …); assay: Alphascreen; competition with 100 pM biotinylated hHGF for c-MET/Fc
[5] = molecular target: T1, human c-Met, cell membrane expressed …; assay: cell-based or functional assay; remark: listed apart in the source

T1 sequence (P08581 25-1390 limits assumed, form in doubt): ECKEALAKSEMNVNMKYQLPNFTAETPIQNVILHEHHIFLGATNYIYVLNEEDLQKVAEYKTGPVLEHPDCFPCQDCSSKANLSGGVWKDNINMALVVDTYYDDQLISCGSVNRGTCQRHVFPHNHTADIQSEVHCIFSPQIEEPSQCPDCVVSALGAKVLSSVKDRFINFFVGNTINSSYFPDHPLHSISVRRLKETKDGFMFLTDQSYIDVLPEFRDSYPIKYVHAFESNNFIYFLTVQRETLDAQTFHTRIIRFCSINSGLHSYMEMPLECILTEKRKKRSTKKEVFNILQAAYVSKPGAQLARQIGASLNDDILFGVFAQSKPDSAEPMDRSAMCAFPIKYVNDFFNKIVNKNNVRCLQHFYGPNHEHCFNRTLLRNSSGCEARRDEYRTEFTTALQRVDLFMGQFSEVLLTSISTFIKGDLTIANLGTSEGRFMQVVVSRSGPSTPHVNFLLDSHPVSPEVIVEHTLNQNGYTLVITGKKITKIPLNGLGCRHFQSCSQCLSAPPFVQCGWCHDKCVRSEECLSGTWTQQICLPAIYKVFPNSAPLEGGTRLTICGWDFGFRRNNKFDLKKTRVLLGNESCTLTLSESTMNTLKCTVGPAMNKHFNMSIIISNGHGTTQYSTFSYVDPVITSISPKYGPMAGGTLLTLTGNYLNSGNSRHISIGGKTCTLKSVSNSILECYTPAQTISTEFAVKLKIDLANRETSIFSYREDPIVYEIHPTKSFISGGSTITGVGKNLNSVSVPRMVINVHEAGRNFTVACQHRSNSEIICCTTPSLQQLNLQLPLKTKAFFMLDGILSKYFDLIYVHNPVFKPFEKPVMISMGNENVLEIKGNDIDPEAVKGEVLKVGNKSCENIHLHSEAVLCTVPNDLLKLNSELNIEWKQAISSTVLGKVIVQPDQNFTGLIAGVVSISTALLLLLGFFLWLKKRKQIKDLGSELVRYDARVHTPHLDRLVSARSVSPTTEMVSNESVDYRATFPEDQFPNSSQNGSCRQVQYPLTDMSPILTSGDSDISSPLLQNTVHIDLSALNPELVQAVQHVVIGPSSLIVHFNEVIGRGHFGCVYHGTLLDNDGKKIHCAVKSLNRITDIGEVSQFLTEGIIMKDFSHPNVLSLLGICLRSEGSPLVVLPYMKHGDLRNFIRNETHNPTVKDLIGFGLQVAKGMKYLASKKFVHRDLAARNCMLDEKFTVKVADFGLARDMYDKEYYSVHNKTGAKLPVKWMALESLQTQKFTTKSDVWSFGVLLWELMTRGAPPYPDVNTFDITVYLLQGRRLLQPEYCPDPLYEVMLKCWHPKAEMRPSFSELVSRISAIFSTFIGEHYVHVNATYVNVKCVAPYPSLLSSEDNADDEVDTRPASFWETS
T2 sequence (chain, as listed by the source mutant limits assumed): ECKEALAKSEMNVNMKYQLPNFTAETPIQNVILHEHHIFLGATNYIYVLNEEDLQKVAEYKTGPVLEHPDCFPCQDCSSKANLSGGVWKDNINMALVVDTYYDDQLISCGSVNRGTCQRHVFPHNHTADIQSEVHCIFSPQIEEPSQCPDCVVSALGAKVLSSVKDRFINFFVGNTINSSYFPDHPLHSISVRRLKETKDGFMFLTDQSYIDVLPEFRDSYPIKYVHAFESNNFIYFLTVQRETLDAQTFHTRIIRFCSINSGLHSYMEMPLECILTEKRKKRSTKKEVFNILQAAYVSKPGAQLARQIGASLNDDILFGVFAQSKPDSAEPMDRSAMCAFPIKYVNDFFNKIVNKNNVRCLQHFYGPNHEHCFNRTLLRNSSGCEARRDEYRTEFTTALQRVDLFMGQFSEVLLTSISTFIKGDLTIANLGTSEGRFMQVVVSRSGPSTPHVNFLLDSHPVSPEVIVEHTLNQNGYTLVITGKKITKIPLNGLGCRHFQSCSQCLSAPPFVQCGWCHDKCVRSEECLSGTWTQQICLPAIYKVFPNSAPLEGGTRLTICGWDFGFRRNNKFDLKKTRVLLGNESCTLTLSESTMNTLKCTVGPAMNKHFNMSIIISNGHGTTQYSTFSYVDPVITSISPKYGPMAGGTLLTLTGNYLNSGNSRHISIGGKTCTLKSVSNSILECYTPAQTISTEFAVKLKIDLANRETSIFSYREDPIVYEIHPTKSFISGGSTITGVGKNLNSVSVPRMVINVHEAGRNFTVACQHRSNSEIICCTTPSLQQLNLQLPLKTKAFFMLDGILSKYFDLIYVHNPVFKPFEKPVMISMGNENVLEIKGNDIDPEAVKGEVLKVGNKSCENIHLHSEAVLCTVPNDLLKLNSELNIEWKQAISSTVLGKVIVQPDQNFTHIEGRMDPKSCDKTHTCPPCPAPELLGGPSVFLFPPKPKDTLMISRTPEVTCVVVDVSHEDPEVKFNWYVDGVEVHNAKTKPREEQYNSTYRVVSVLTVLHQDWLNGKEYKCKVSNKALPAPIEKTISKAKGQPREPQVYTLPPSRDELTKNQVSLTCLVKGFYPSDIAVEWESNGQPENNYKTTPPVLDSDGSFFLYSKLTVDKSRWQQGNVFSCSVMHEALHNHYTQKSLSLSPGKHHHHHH

B1: 04E09(C22A/C92S) (SEQ ID NO: 25) tagged with 3xFlag-His6 (VHH)
VHH: EVQLVESGGGLVQPGGSLRLSAAASGFILDYYAIGWFRQAPGKEREGVLCIDASDDITYYADSVKGRFTISRDNAKNTVYLQMNSLKPEDTGVYYSATPIGLSSSCLLEYDYDYWGQGTLVTVSSGAADYKDHDGDYKDHDIDYKDDDDKGAAHHHHHH
IC50, HGF-dependent c-Met phosphorylation [1]: 3.8 nM

B2: 04E09(C50S/C100bG) (SEQ ID NO: 24) tagged with 3xFlag-His6 (VHH)
VHH: EVQLVESGGGLVQPGGSLRLSCAASGFILDYYAIGWFRQAPGKEREGVLSIDASDDITYYADSVKGRFTISRDNAKNTVYLQMNSLKPEDTGVYYCATPIGLSSSGLLEYDYDYWGQGTLVTVSS
fold lower on-rate and off-rates against 04E09-9GS-Alb11 and 04E09 (C22A/C92S) [2]: 10 fold

B3: A007900184 (33H10-3xFLAG-His6) (VHH)
VHH: EVQLVESGGGLVQAGGSLRLSCAASGFTFDDYAIGWFRQAPGEEREGVSSISSTYGLTYYADSVKGRFTISSSNAKNTVYLQMNNLKPEDTAVYYCAATPIERLGLDAYEYDYWGQGTLVTVSS
IC50, c-Met phosphorylation [3]: 79 nM

B5: A007901248 (VHH)
VHH: EVQLVESGGGLVQPGGSLRLSCAASGFAFDDYAIGWFRQAPGKEREGVSSISSTYGLTYYADSVKGRFTISSDNSKNTVYLQMNSLRPEDTAVYYCAATPIGLIGLDAYEYDYWGQGTLVTVSS
IC50, c-Met phosphorylation [3]: 11.5 nM

B6: A007901245 (VHH)
VHH: EVQLVESGGGLVQPGGSLRLSCAASGFTFDDYAIGWFRQAPGEEREGVSSISSTYGLTYYADSVKGRFTISSDNSKNTVYLQMNSLRPEDTAVYYCAATPIGLIGLDAYEYDYWGQGTLVTVSS
IC50, Proliferation assay, plate 1 [3]: 3.69 nM | IC50, c-Met phosphorylation [3]: 5.41 nM

B7: A007901246 (VHH)
VHH: EVQLVESGGGLVQPGGSLRLSCAASGFAFDDYAIGWFRQAPGEEREGVSSISSTYGLTYYADSVKGRFTISSDNSKNTVYLQMNSLRPEDTAVYYCAATPIGLIGLDAYEYDYWGQGTLVTVSS
IC50, Proliferation assay, plate 1 [3]: 1.88 nM | IC50, c-Met phosphorylation [3]: 3.44 nM

B8: A007901247 (VHH)
VHH: EVQLVESGGGLVQPGGSLRLSCAASGFTFDDYAIGWFRQAPGKEREGVSSISSTYGLTYYADSVKGRFTISSDNSKNTVYLQMNSLRPEDTAVYYCAATPIGLIGLDAYEYDYWGQGTLVTVSS
IC50, c-Met phosphorylation [3]: 12.8 nM

B12: A007901249 (VHH)
VHH: EVQLVESGGGLVQPGGSLRLSCAASGFTFDDYAIGWFRQAPGEERLGVSSISSTYGLTYYADSVKGRFTISSDNSKNTVYLQMNSLRPEDTAVYYCAATPIGLIGLDAYEYDYWGQGTLVTVSS
IC50, Proliferation assay, plate 2 [3]: 1.93 nM | IC50, c-Met phosphorylation [3]: 2.81 nM

B13: A007901219 (A00790105-9GS-Alb23) (bispecific antibody)
chain: DVQLVESGGGLVQPGGSLRLSCAASGFILDYYAIGWFRQAPGKEREGVLCIDASDDITYYADSVKGRFTISRDNSKNTVYLQMNSLRPEDTAVYYCATPIGLSSSCLLEYDYDYWGQGTLVTVSSGGGGSGGGSEVQLLESGGGLVQPGGSLRLSCAASGFTFRSFGMSWVRQAPGKGPEWVSSISGSGSDTLYADSVKGRFTISRDNSKNTLYLQMNSLRPEDTAVYYCTIGGSLSRSSQGTLVTVSS
notes: also called A007901219 (Alb23)
fold improved potency as compared to 5D5 Fab v2 [4]: > 5 fold | IC50, cMET phosphorylation assay, + HSA [5]: 4.2 nM | IC50, cMET phosphorylation assay, - HSA [5]: 5.41 nM

B14: 04E09(L49S) (SEQ ID NO: 23) tagged with 3xFlag-His6 (VHH)
VHH: EVQLVESGGGLVQPGGSLRLSCAASGFILDYYAIGWFRQAPGKEREGVSCIDASDDITYYADSVKGRFTISRDNAKNTVYLQMNSLKPEDTGVYYCATPIGLSSSCLLEYDYDYWGQGTLVTVSS
IC50, HGF-dependent c-Met phosphorylation [1]: 3.1 nM

Continued, values first:

IC50, c-Met phosphorylation [3]: 4.98 nM
B4: A007901251 (VHH)
VHH: EVQLVESGGGLVQPGGSLRLSCAASGFTFDDYAIGWFRQAPGKERLGVSSISSTYGLTYYADSVKGRFTISSDNSKNTVYLQMNSLRPEDTAVYYCAATPIGLIGLDAYEYDYWGQGTLVTVSS

IC50, c-Met phosphorylation [3]: 4.16 nM
B9: A007901252 (VHH)
VHH: EVQLVESGGGLVQPGGSLRLSCAASGFAFDDYAIGWFRQAPGKERLGVSSISSTYGLTYYADSVKGRFTISSDNSKNTVYLQMNSLRPEDTAVYYCAATPIGLIGLDAYEYDYWGQGTLVTVSS

IC50, c-Met phosphorylation [3]: 4.84 nM
B10: A007901253 (VHH)
VHH: EVQLVESGGGLVQPGGSLRLSCAASGFTFDDYAIGWFRQAPGEEREGVSSISSTYGLTYYADPVKGRFTISSDNSKNTVYLQMNSLRPEDTAVYYCAATPIGLIGLDAYEYDYWGQGTLVTVSS

IC50, Proliferation assay, plate 1 [3]: 2.29 nM | IC50, Proliferation assay, plate 2 [3]: 1.32 nM | IC50, c-Met phosphorylation [3]: 2.34 nM
B11: A007901250 (VHH)
VHH: EVQLVESGGGLVQPGGSLRLSCAASGFAFDDYAIGWFRQAPGEERLGVSSISSTYGLTYYADSVKGRFTISSDNSKNTVYLQMNSLRPEDTAVYYCAATPIGLIGLDAYEYDYWGQGTLVTVSS
